Laboratory results published in the supplement of paper PMC10567573.

B1: FCHO1 (parent)
chain: FSDPSQSDPETKDFWLNMAALTEA
B2: CASP6 (parent)
chain: TCADRDNLTRRFSDLGFEVKCFND

Variants of: B1
Assay: protein stability index of a GFP-peptide fusion (GPS, HEK-293T) (PSI 1-6); higher = more stable
Conditions: c terminus: a fixed tail appended
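Also: lentivirally expressed fusions sorted by FACS into six bins by GFP to DsRed ratio, PSI derived from sequencing read proportions per bin multiplied by bin number.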

Protein stability index, by site and new letter:
F1: T 4.87, E 4.97, M 4.18, W 4.1, N 4.52, Y 3.26, A 4.73, D 5.36, C 4.02, G 4.86, I 4.11, Q 4.72, S 4.74, P 4.8, H 4.7, K 4.42, L 4.25, R 3.73, V 4.86
P9: D 3.7, C 2.68, E 4.01, F 2.76, A 3.12
S7: K 2.8, R 2.64, A 3.37, W 2, H 3.39, L 2.65, Y 2.69, T 2.74, I 2.38, V 3.29, E 3.69, G 2.6, M 3.55, C 2.9, D 3.73, N 2.86, Q 3.18, P 3.92, F 2.63
Q6: A 2.91, G 2.25, I 2.4, S 2.66, C 2.64, F 2.65, H 2.59, T 2.68, N 2.56, W 1.75, M 2.66, L 2.55, D 3.3, R 2.44, P 3.16, Y 1.81, K 2.52, V 2.85, E 3.35
D3: I 1.71, Y 1.78, F 2.1, C 2.23, R 2.06, K 1.48, E 2.73, S 2.38, A 1.45, W 2.72, H 1.69, M 1.96, L 1.74, N 2.02, Q 2.08, P 2.4, V 1.45, T 1.74, G 1.74
S5: F 2.27, K 2.94, D 3.93, E 4.46, Q 3.21, M 3.35, I 2.74, T 2.84, P 2.94, Y 2.45, R 2.21, C 2.6, N 2.79, L 2.84, W 1.74, H 2.87, V 2.54, A 3.03, G 2.66
D8: T 2.81, N 1.95, C 2.62, K 2.32, H 2.21, F 2.37, V 3.11, E 3.1, M 3.04, G 2.75, L 2.63, A 2.62, I 2.9, Y 2.23, R 2.57, W 1.86, P 2.93, Q 2.24, S 2.71
P4: L 2.45, C 1.99, D 3.49, M 2.21, I 3.33, G 2.38, S 2.26, W 1.85, N 2.04, R 2.02, T 2.23, E 3.37, A 2.81, F 2.16, Y 1.85, Q 2.67, V 2.65, H 2.16, K 2.04
S2: N 1.53, W 2.93, P 3.02, Y 3.28, D 4.53, L 2.65, A 1.7, I 2.8, Q 2.4, K 4.22, F 2.89, H 1.99, G 2.32, M 3.5, T 2.11, V 1.93, R 3.79, C 1.69, E 4.62

Variants of: B2
Assay: as above
Conditions: c terminus: a fixed tail appended

Protein stability index of substitutions, site by site:
D24: Q 3.24, R 2.67, Y 2.04, S 2.57, V 1.23, M 2.6, P 3.24, T 2.54, W 2.14, N 2.97
